The values that follow come from paper PMC2266763, “Dimerization of the transmembrane domain of amyloid precursor proteins and familial Alzheimer's disease mutants” (BMC Neuroscience, 2008).

B1: wild-type APP-TM peptide [modified: acceptor version: Glu with the fluorescent group EDANS covalently linked to its sidechain, after the N-terminal Lys-tag (in place of the Trp of the donor version); acceptor version: Glu with … (parent)
chain 1: GAIIGLMVGGVVIATVIVITLVML
chain 2: GAIIGLMVGGVVIATVIVITLVML
B2: wild-type APP-TM peptide [modified: acceptor version: Glu with the fluorescent group EDANS covalently linked to its sidechain, after the N-terminal Lys-tag (in place of the Trp of the donor version); acceptor version: Glu with … (parent)
chain: GAIIGLMVGGVVIATVIVITLVML

The variants in the first assay derive from B1. The assay can be described thus: FRET. The following applies: 50 µM total peptide concentration, equimolar wild-type and mutant (open bar), parent: 0.73, read off a plot.
Consider chain 1 GAIIGLMVGGVVIATVIFITLVML, for which the response was determined as 0.43 A/D ratio.
Take chain 1 GAIIGLMVGGVVIATVIGITLVML: the response came to 1.6 A/D ratio.
Same read-out and setting: next, chain 1 GAIIGLMVGGVVIAIVIVITLVML: 0.44 A/D ratio.

The assay is the same for the next values; noted with them: 20 mM SDS, equimolar Trp-labeled wild-type and Edans-labeled V717G, 50 µM total peptide concentration (highest point of the curve), read off a plot.
As for chain 1 GAIIGLMVGGVVIATVIGITLVML, the response was determined as 1.6 A/D ratio.

In a further assay the parent is B2. As to the kind of experiment: FRET. The following applies: with itself; 50 µM total peptide concentration; homodimer (solid bar); parent: 0.73; read off a plot.
As to GAIIGLMVGGVVIAIVIVITLVML, the response was found to be 0.42 A/D ratio.
